In US20230227547A1, “ANTIBODY-PAYLOAD CONJUGATES WITH ENHANCED DELIVERY DOMAIN AND USES THEREOF” (IPROGEN BIOTECH INC., priority 2019, published 2023):

Target: CD22 (human) (UniProt P20273)
Assay: cell-based or functional assay

Anti-CD22 mAb-LL37-MMAE8 (Inotuzumab ADC with LL37) (antibody)
IC50 (nM), XTT viability, RL cells, 72 h: 0.235 nM | IC50 (nM), XTT viability, Ramos cells, 72 h: 0.035 nM

Anti-CD22 mAb-MMAE8 (Inotuzumab ADC) (antibody)
IC50 (nM), XTT viability, RL cells, 72 h: 0.26 nM | IC50 (nM), XTT viability, Ramos cells, 72 h: 0.04 nM
